Laboratory results as given in article PMC2562756.

Tests used:
[1] = target: T1, DNA topoisomerase 1 (TOP1) (human, UniProt P11387 1-765); assay: EMSA
[2] = target: T1, DNA topoisomerase 1 (TOP1); assay: competition
[3] = target: T1, DNA topoisomerase 1 (TOP1); assay: competition; remark: listed apart in the source

T1 sequence (P11387 whole entry): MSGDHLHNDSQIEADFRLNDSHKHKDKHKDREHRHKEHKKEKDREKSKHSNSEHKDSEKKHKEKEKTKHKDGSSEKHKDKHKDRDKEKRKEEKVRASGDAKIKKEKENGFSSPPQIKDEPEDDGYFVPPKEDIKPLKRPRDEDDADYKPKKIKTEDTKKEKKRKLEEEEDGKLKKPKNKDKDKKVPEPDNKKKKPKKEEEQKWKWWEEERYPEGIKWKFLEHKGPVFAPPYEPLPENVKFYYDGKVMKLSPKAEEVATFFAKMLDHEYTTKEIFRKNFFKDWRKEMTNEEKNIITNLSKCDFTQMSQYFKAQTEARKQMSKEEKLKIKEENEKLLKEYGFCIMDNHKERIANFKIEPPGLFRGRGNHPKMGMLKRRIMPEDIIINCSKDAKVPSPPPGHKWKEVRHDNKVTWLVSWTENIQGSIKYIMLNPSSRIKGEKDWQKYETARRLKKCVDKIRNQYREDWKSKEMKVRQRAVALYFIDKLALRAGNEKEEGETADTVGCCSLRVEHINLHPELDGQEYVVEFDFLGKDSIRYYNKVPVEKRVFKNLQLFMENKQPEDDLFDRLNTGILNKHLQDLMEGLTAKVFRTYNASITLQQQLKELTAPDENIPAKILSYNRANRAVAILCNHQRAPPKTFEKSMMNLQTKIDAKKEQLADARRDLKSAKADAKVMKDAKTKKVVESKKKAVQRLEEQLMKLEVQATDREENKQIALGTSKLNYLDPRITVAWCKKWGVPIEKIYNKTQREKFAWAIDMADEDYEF

B1: 52-bp TOP1 substrate (dsDNA)
DNA 1: TCTAGAGGATTTCGAAGACTTAGAGAAATTTCGAAGATCCCCGGGCGAGCTC
DNA 2: GAGCTCGCCCGGGGATCTTCGAAATTTCTCTAAGTCTTCGAAATCCTCTAGA
[1]
  binding result: binds

B2: 22-bp TOP1 binding sequence competitor (TOP1-BS) (dsDNA)
DNA 1: AAAAAGACTTGGAAAAATTTTT
DNA 2: AAAAATTTTTCCAAGTCTTTTT
[2]
  binding result: binds

B3: 42-bp NF-kappaB binding sequence competitor (NF-kappaB-BS) (dsDNA)
DNA 1: GATCCAAGGGGACTTTCCATGGATCCAAGGGGACTTTCCATG
DNA 2: CATGGAAAGTCCCCTTGGATCCATGGAAAGTCCCCTTGGATC
[3]
  binding result: no binding
